# According to PMC5481319:
# Biological target: T1, (FNRD154A)2-His6 D154A (Escherichia coli) (UniProt P0A9E5)
# T1 sequence: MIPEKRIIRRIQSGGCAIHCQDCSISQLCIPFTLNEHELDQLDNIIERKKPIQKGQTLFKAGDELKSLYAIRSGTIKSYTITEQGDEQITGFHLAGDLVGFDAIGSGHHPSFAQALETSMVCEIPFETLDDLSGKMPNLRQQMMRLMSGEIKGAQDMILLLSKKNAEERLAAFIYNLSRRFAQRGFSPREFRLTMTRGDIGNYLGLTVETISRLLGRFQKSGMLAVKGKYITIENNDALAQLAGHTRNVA
# Assay: EMSA
# Conditions: 20 mM Tris, 50 mM NaCl, 40 mM EDTA ([…], pH 6.8, 30 min at 37 C
sequence,measurement,value
TCAGGCAGATAAACCCGTTCTTTGGCCTTGCCACTTAAAGTGCCAAAATCAATCTCCGTACTGATTTTCTCCGGTGTAAAAGAAAGCCCAGTATCAGAAGCCAGTGCAGCAAACGCTACAGGAGCTGAGAGTGCAGTAGCAAGAATCTTTAAGTACATAGACAAGTTAACTCCATTCCACTCGTTTGTTTTTGATAAATATTTTTTTATTTACTCGTAGTAGTCAACTGAAAAATGCTGTTTTGTTTAACGTTTGTTT (double strand) [ompT plasmid promoter PCR product],binding,binds
